Data on two substances can be found in PMC6934155.

For assay [1], the target named is Rad3/Rad26 (ATR/ATRIP homolog in Schizosaccharomyces pombe) with TAPm-Rad3 (S. pombe) (UniProt Q02099). Briefly: co-IP.
Assay [2] has as its target Fatty acid synthase (FAS) of S. pombe, co-purified with Rad3/Rad26 (S. pombe) (UniProt Q9UUG0).

In assay [1], “Apo-state fatty acid synthase (FAS) of S. pombe with Fas1-FLAG, Q9UUG0 1-2073; Q10289 1-1842” yielded a fold of co-precipitation compared with control (CPT-treated cells) of 1.79 times and a fold of co-precipitation compared with control (MMS-treated cells) of 2.01 times.

Turning to “Rad3/Rad26 (ATR/ATRIP homolog in Schizosaccharomyces pombe) with TAPm-Rad3, Q02099 1-2386; P36632 1-614”, in assay [2], the specific (catalytic) activity of co-purified FAS relative to apo-state FAS amounted to 23.3%.
